In article PMC10842940, “Establishment of dsDNA-dsDNA interactions by the condensin complex” (Molecular cell, 2023):

T1: Cnd1^Ycs4 (fission yeast condensin HEAT-repeat subunit) (S. pombe, UniProt O94679 1-1158)
T1 construct: Cnd1 (Ycs4), S. pombe condensin HEAT-repeat subunit; cDNA cloned into an S. cerevisiae expression vector; source: S. cerevisiae (w303, pep4 deleted), co-overexpressed with the other four condensin subunits from GAL1-10 promoters; in cell extract, and purified as the complex (IgG-agarose, 3C protease elution, heparin, Superose 6)
T1 sequence (looked up): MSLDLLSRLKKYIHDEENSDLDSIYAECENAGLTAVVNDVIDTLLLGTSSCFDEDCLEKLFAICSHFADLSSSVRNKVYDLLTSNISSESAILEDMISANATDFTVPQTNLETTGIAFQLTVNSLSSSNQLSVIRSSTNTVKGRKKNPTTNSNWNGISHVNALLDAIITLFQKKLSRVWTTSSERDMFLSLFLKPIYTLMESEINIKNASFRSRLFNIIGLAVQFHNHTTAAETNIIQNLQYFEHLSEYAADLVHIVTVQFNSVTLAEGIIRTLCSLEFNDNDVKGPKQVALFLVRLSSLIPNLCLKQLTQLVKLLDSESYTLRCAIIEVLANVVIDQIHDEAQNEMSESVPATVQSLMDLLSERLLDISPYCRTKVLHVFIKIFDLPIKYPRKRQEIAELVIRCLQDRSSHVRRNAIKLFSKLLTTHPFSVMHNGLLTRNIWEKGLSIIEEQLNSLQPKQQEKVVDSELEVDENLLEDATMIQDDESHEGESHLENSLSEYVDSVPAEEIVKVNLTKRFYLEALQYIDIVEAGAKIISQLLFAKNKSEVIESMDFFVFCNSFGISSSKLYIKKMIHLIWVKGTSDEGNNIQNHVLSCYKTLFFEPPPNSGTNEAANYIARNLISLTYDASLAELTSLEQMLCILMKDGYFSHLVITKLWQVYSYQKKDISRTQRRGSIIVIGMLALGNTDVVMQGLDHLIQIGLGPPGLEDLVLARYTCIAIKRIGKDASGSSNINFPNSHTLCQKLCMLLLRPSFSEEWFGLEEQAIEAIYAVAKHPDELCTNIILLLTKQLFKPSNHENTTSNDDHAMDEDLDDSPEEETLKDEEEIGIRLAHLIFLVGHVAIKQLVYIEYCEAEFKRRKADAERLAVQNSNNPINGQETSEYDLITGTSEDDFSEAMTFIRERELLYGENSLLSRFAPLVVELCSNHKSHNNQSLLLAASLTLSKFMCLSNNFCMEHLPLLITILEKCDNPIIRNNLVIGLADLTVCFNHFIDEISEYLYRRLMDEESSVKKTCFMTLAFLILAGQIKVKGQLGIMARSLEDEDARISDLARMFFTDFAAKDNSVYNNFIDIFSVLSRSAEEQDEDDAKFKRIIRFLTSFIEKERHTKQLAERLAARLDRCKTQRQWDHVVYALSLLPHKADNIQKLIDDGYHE


Experiments:
[1] = tested on: condensin pentamer (Schizosaccharomyces pombe); experiment: condensin immunoprecipitation, 500 mM NaCl wash; conditions: Mg2+, ATP, binding buffer, pH and temperature not given in material, washes at 500 mM NaCl (topological loading) or 100 mM NaCl (gripping state)
[2] = tested on: condensin pentamer;condensin pentamer (Schizosaccharomyces pombe;Schizosaccharomyces pombe); experiment: second DNA capture by condensin preloaded on bead-bound DIG-5kb-DIG; conditions: binding buffer, pH and temperature not given in material; Mg2+ and ATP; washes at 500 mM NaCl (topological loading) or 100 mM NaCl (gripping state)
[3] = biological target: T1, Cnd1^Ycs4 (fission yeast condensin …); experiment: cross-linking; sulfo-SDA cross-link mass spectrometry (CLMS) of the purified five-subunit condensin complex with equimolar 124 bp linear dsDNA and 0.5 mM ADP·BeF3 (DNA-gripping state); CL buffer, 30°C 30 min, UV 365 nm on ice; 1% FDR at residue-pair level; conditions: both partners purified

binding result [3]	Molecule	binding signal (% of input DNA recovered) [1]	binding signal (% of second dsDNA captured) [2]
–	supercoiled pBlueScript KSII(+)	> 40	10
binds	Cnd2^Brn1 (fission yeast condensin kleisin subunit) (natural protein, S. pombe, UniProt Q9Y7R3 1-742, looked up, Cnd2 (Brn1), S. pombe condensin kleisin subunit; cDNA cloned into an S. cerevisiae expression vector; The 2xProtA tag was still on the chain while the complex was captured on rabbit IgG-agarose (assay a1); also called Cnd2-2xProtA; source: S. cerevisiae (w303, pep4 deleted), co-overexpressed with the other four condensin subunits from GAL1-10 promoters; in cell extract, and purified as the …) MKRASLGGHAPVSLPSLNDDALEKKRAKENSRKQRELRRSSALHSITPRRESLNNSSPFNSSHQVPVLSNFEEWIKLATDNKINSTNTWNFALIDYFHDMSLLRDGEDINFQKASCTLDGCVKIYTSRIDSVATETGKLLSGLANDSKVLQQTEEGEDAENDDEDLQKKKERKRAQRSVKTLVKDFESIRAKKFELECSFDPLFKKMCADFDEDGAKGLLMNHLCVDQHGRIVFDSSDTVIKDLENKDVEAESQEAVVAAPIESHDTEMTNVHDNISRETLNGIYKCYFTDIDQLTICPSLQGFEFDSKGNLDVSLLKSLSDEVNMITTTSLVDNTMEKTDADAASLSSDSDGEEGHIVHALEEMAYDEENPYVDVVPKAMDESENPDFGVDTEVNMADGSTMNENYSIISTAAANGVYEYFDKSMKKNWAGPEHWRIQALRKNINNASTVFNSSNTAESSDNVSRSLSSTERKKRRELDNAIDFLQEVDVEALFTPATSSLKLPKSHWKRHNRCLLPDDYQYDSKRLLQLFLKPKMSVLPNADGEGQLQLNKALDDENDLDGIQPHGFDSDGSDNVDEGIPPYGFGDSDSPKQTPLLTPPSSSGFGDNLLLTARLAKPDMLNYAKRAKKVDVRVLKEKLWKCLDLENTIKENSINSHIEGSEMESEETNMPVKSFFSTVNQLEETYEKKELKDISTSFAFICVLHLANEHNLELTSNEDFSDVFIRPGPNLTTLEALENDV	–	–
